The results in this text go back to article PMC9095979, “Optimization of eIF4E-Binding Peptide Pep8 to Disrupt the RBM38-eIF4E Complex for Induction of p53 and Tumor Suppression” (Frontiers in Oncology, 2022).

The experiment concerns the target T1, eIF4E (purified, from pTXB1-eIF4E) (UniProt P06730 1-217).
T1 construct: also called purified eIF4E; source: pTXB1-eIF4E; protein expression and purification as previously described (12)
The experiment in a line: pull-down; competitive: GST-RBM38 on GST beads, 250 µg purified eIF4E and 10 µM peptide in lysis buffer (50 mM Tris pH 7.5, 150 mM NaCl, 0.1% Triton X-100), rocked overnight, washed 3x, western blot. Particulars: both partners purified.

T1 sequence (P06730 whole entry): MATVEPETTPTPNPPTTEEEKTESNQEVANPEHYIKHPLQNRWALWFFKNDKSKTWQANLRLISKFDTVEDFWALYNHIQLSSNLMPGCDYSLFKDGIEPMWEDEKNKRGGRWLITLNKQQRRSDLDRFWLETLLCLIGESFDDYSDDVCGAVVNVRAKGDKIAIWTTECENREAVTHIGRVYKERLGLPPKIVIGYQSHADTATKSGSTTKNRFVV

B1: Pep7 (peptide)
peptide: PSAASPV
notes: also called Pep7-PSAASPV; shortened 7-amino acid peptide; source: synthetic peptide (GenScript)
For the molecule B1, the binding result is recorded as “binds”.
